The test addresses T1, Human PCSK9 form a' (human, UniProt Q8NBP7 31-692).
T1 construct: also called PCSK9 a'
Put plainly: SPR (ProteOn XPR36), antibody captured on anti-human IgG, PCSK9 as analyte, 25 C, 1:1 model.

B1: Antibody 316P (antibody, V domains shown)
VH: EVQLVESGGGLVQPGGSLRLSCAASGFTFNNYAMNWVRQAPGKGLDWVSTISGSGGTTNYADSVKGRFIISRDSSKHTLYLQMNSLRAEDTAVYYCAKDSNWGNFDLWGRGTLVTVSS
VL: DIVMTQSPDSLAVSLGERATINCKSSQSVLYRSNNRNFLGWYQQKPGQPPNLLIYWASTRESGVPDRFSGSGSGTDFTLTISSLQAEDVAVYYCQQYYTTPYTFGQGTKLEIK
What is called Kd is the equilibrium constant for the complex coming apart. High values mean lower affinity, low ones higher affinity. As a reminder, the koff is a measure of how fast the partners let go of each other. Low values mean slow dissociation, high ones fast dissociation. For orientation: kon means the second-order rate constant of association. Lower therefore signals slower complex formation. On to B1, for which the dissociation constant Kd amounted to 0.181 nM, the koff amounted to 0.000272 s⁻¹ and the kon was determined as 1.5e+06 M⁻¹ s⁻¹.

B2: Evolocumab (antibody, V domains shown)
VH: QVQLVQSGAEVKKPGASVKVSCKASGYTLTSYGISWVRQAPGQGLEWMGWVSFYNGNTNYAQKLQGRGTMTTDPSTSTAYMELRSLRSDDTAVYYCARGYGMDVWGQGTTVTVSS
VL: QSALTQPASVSGSPGQSITISCTGTSSDVGGYNSVSWYQQHPGKAPKLMIYEVSNRPSGVSNRFSGSKSGNTASLTISGLQAEDEADYYCNSYTSTSMVFGGGTKLTVL
B2 registered an equilibrium dissociation constant (Kd) of 0.185 nM, a koff of 2.29e-05 s⁻¹ and a kon of 124000 M⁻¹ s⁻¹.
